# Data taken from paper PMC5207208 (Science (New York, N.Y.), 2016).
# Legend:
# Nup192 = Nup192 (Chaetomium thermophilum, UniProt G0S4T0 1-1756); test: SEC-MALS
# Nup188 = Nup188 (Chaetomium thermophilum, UniProt G0SFH5 1-1858); test: SEC-MALS
# Sequence of Nup188 (G0SFH5 whole entry): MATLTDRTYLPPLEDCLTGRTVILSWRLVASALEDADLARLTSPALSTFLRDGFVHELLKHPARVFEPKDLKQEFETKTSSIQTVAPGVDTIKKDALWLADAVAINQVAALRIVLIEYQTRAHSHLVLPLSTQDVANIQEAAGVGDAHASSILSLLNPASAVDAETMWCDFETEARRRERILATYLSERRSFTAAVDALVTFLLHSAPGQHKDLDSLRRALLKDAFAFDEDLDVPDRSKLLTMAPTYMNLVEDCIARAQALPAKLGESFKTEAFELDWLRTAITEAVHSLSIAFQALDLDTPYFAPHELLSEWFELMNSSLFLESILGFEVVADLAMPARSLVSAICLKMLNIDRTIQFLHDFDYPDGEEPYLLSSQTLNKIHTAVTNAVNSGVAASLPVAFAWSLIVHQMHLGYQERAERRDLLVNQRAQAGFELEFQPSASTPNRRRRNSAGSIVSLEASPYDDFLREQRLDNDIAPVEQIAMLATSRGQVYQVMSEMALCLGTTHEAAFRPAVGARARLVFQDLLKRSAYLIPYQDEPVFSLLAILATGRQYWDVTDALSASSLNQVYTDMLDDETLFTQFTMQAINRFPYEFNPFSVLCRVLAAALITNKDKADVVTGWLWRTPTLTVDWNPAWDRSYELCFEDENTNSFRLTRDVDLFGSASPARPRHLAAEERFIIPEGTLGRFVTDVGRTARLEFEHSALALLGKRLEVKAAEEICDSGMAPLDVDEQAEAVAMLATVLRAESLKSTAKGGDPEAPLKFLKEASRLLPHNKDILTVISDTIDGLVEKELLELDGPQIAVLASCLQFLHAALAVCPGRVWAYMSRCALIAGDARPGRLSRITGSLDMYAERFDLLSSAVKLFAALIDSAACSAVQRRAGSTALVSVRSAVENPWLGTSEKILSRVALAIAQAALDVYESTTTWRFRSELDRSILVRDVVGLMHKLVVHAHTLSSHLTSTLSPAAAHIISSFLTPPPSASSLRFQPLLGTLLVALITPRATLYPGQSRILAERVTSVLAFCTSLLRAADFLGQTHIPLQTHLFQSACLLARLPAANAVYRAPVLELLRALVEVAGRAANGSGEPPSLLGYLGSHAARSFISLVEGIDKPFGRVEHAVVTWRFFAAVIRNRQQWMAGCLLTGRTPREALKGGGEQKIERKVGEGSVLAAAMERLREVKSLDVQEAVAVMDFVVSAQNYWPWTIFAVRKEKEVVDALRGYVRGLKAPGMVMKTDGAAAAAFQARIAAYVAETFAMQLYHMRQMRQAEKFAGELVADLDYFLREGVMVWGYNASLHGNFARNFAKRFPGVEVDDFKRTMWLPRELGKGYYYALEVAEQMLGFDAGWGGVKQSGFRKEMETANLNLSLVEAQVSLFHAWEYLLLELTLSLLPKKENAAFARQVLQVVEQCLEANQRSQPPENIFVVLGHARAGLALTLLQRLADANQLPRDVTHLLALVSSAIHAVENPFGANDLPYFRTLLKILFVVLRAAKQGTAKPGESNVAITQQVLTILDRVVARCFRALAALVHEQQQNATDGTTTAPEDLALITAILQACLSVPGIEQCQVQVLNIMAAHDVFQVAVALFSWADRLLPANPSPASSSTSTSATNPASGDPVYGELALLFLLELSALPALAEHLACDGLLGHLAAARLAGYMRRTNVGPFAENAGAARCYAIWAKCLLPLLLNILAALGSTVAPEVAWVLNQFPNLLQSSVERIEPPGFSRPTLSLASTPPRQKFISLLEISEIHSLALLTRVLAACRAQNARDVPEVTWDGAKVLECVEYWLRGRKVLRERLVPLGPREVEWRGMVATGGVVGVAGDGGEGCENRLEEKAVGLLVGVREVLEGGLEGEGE
# Sequence of Nup192 (G0S4T0 whole entry): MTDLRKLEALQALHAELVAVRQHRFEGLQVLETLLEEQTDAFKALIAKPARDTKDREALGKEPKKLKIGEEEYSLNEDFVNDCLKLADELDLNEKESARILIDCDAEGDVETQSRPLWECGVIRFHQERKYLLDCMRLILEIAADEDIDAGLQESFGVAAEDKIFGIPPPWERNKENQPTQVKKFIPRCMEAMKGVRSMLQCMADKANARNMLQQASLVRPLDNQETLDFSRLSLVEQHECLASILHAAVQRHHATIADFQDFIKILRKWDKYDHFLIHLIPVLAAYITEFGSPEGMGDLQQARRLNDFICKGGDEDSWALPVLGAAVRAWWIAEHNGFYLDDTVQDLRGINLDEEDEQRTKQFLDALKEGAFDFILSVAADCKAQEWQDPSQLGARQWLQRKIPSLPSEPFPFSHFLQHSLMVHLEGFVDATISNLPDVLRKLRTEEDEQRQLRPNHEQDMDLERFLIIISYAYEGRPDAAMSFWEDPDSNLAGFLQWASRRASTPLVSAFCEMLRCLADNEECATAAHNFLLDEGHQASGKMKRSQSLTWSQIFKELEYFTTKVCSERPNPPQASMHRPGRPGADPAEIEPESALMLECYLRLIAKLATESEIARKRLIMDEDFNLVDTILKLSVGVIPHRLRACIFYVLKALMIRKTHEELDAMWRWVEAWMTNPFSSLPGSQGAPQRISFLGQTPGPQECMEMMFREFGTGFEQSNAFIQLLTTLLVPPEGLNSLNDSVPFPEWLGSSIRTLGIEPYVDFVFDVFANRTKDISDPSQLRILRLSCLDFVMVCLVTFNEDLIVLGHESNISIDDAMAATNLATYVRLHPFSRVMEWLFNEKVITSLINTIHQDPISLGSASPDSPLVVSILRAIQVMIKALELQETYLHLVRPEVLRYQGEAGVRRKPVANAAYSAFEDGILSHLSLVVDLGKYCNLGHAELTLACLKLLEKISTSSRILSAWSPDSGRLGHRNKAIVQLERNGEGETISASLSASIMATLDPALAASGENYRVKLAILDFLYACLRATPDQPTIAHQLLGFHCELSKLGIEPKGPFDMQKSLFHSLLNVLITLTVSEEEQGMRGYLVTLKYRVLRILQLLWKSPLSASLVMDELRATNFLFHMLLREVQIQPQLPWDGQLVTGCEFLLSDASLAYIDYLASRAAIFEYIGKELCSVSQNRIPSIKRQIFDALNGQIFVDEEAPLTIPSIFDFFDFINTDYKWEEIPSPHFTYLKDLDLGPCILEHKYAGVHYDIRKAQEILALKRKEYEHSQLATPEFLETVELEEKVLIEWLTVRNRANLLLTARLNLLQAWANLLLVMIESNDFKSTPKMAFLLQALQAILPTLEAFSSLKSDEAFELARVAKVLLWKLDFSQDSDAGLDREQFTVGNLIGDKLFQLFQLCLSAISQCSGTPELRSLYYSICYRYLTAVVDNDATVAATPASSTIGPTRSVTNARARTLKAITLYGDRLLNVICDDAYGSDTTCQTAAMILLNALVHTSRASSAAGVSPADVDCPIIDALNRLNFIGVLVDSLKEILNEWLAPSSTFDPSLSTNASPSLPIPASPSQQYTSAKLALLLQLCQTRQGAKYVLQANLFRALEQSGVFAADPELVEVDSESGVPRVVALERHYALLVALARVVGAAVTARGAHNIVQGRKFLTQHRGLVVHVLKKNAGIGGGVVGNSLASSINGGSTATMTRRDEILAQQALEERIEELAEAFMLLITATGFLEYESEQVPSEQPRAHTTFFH
Binder,binding result (Nup192),binding result (Nup188)
"Nup145N fragment (residues 606–683) (domain or fragment, Chaetomium thermophilum, UniProt G0SAK3 606-683, looked up) DDKIQNPGPLATPLSGKAKVKSRSILPMYKLSPANASRLVTTPQKRAYGFSFSAYGSPTSPSSSASSTPGAFGQSILS",binds,–
"EWEAQRKRIYQHFGIK (peptide, UniProt G0S024 286-301, looked up) [Nic96 fragment (residues 286–301)]",binds,–

# The remaining lines, values ahead:
binding result (Nup192),binding result (Nup188),Binder
–,binds,"Nup145N fragment (residues 606–750) (domain or fragment, Chaetomium thermophilum, UniProt G0SAK3 606-750, looked up) DDKIQNPGPLATPLSGKAKVKSRSILPMYKLSPANASRLVTTPQKRAYGFSFSAYGSPTSPSSSASSTPGAFGQSILSSSINRGLNKSISASNLRRSLNVEDSILQPGAFSANSSMRLLGGPGSHKKLVINKDMRTDLFSPPNKD"
–,binds,"DFDAFLEENVTLEWEAQRKRIYQHFGIK (peptide, UniProt G0S024 274-301, looked up) [Nic96 fragment (residues 274–301)]"
